Experiments:
Assay in all cases: pull-down; MagStrep (streptavidin) magnetic beads sediment biotin-lipid proteoliposomes with MexB or MexAB; OprM in separate proteoliposomes; non-energized: 25 mM Hepes pH7, 100 mM K2SO4, 2 mM MgSO4; 20 min at room temperature; pellets on SDS-PAGE, Coomassie
Conditions in all cases: both partners purified
[1] = molecular target: T1, MexAB_(D407N): MexA (palmitoylated) and the inactive MexB D407N mutant reconstituted together in biotinylated … (Pseudomonas aeruginosa, UniProt P52477 24-383; P52002 1-1046, D407N, palmitoylated (lipid anchor); residue not stated)
T1 construct: MexA, Pseudomonas aeruginosa, palmitoylated version; as m1; also called MexA and MexB_(D407N); source: reconstituted together in proteoliposomes with biotinylated lipids
T1 sequence (looked up) 1: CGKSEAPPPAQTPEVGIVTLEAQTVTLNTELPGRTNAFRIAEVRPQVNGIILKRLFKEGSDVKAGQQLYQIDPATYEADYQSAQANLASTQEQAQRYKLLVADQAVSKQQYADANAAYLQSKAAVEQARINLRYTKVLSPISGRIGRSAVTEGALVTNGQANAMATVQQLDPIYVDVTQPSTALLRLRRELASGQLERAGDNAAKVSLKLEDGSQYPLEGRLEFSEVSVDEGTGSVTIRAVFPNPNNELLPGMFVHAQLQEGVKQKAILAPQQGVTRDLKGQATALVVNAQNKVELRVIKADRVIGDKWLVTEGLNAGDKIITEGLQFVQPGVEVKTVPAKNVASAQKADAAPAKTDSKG
T1 sequence (looked up) 2: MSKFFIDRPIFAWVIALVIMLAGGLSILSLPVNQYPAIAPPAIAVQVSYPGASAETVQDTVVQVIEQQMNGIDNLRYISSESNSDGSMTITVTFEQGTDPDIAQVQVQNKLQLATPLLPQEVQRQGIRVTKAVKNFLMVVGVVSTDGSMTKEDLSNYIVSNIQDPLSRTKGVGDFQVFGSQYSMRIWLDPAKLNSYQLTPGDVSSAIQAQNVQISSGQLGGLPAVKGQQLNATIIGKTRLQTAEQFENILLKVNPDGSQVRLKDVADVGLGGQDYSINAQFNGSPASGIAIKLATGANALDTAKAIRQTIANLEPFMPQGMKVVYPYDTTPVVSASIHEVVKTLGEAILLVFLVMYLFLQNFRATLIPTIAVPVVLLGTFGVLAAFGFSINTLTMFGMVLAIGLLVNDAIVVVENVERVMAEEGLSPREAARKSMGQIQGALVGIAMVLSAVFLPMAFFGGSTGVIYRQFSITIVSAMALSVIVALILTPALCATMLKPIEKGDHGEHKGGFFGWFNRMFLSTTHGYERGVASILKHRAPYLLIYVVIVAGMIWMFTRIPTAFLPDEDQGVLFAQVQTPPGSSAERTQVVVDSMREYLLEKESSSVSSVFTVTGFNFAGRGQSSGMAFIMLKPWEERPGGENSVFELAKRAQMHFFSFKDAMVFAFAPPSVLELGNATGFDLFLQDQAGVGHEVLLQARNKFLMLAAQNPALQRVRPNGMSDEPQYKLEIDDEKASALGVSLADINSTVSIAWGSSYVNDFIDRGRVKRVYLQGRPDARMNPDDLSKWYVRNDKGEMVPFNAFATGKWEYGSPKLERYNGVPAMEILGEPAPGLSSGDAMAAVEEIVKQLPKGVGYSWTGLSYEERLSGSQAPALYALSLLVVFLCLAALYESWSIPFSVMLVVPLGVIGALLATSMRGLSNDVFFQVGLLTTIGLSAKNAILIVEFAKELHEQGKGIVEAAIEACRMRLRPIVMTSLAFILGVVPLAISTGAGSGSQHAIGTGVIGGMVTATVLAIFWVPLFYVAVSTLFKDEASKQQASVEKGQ

[2] = molecular target: T2, MexAB: MexA (palmitoylated) and MexB reconstituted together in biotinylated proteoliposomes (Pseudomonas aeruginosa, UniProt P52477 24-383; P52002 1-1046, palmitoylated (lipid anchor); residue not stated)
T2 construct: MexA, Pseudomonas aeruginosa, palmitoylated version; as m1; MexB, Pseudomonas aeruginosa; as m3; also called MexAB proteoliposomes; MexA and MexB; source: each protein from C43 ΔAcrB strain, purified; reconstituted together in proteoliposomes with biotinylated lipids
T2 sequence 1: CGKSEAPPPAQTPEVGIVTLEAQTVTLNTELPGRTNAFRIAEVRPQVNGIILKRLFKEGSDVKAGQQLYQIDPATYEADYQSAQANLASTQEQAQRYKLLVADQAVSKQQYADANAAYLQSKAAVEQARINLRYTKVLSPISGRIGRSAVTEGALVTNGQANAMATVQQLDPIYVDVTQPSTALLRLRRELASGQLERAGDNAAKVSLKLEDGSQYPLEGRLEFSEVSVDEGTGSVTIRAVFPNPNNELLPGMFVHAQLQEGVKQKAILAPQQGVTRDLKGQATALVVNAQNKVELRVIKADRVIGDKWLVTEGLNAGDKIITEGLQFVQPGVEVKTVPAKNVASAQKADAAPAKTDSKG
T2 sequence 2: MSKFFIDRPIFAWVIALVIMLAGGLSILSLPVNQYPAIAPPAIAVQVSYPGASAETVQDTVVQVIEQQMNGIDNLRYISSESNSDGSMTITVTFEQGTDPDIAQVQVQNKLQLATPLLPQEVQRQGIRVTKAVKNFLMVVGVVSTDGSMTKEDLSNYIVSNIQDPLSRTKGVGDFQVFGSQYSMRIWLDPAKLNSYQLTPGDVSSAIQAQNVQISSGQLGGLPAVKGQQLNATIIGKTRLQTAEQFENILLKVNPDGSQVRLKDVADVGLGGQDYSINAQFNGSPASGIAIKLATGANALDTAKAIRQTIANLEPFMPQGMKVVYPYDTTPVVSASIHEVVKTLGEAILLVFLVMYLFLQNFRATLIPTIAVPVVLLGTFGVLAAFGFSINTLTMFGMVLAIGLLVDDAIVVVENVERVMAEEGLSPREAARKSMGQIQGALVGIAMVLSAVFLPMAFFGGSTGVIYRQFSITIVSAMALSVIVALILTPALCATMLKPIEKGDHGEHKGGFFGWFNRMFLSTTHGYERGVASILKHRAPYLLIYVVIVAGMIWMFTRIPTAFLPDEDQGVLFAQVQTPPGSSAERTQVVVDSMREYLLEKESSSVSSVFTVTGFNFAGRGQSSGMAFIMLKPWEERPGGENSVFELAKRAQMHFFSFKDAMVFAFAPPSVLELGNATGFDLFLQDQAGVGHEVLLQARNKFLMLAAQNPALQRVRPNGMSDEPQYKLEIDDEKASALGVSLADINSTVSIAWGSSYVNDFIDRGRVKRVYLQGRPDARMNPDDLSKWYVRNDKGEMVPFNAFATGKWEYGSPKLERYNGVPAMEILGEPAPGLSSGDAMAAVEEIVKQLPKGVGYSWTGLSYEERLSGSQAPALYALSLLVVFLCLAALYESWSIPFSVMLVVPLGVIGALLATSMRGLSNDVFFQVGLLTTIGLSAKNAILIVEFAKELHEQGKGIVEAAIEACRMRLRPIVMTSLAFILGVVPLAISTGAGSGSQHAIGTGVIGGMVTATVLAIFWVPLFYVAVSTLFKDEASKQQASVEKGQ

MexB = molecular target: T3, MexB (Pseudomonas aeruginosa, UniProt P52002 1-1046)
T3 construct: MexB, RND inner membrane transporter of the MexA-MexB-OprM efflux pump, Pseudomonas aeruginosa; Purified by the protocol of Mokhonov et al., 2005 with minor modifications; also called MexB alone; RND pump
T3 sequence: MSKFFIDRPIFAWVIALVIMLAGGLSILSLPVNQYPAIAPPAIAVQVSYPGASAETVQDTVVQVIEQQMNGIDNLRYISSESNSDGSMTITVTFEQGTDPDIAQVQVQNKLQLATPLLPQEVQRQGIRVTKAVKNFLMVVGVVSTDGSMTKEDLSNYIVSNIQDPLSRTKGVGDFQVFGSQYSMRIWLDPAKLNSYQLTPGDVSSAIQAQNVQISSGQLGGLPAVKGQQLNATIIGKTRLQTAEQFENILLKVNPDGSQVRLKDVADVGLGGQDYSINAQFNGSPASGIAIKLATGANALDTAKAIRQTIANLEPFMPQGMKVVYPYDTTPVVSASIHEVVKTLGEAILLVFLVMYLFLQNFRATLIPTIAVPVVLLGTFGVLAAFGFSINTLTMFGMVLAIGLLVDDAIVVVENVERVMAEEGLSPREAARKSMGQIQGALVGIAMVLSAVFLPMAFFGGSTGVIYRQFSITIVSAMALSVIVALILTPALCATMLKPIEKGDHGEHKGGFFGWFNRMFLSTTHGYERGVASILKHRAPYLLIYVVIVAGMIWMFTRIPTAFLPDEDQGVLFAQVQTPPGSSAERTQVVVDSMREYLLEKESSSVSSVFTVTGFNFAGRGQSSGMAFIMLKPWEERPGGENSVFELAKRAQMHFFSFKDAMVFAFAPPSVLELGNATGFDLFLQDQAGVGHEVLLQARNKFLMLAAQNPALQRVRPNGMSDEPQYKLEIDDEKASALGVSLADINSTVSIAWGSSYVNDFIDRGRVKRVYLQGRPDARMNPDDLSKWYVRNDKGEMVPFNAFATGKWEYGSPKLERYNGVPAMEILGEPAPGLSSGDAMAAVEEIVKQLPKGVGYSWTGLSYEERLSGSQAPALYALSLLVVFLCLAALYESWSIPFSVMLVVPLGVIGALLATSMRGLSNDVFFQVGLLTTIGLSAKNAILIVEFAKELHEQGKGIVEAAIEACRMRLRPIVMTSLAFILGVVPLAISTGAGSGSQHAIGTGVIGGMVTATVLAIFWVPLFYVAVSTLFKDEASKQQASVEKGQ

B1: OprM (natural protein)
chain: CSLIPDYQRPEAPVAAAYPQGQAYGQNTGAAAVPAADIGWREFFRDPQLQQLIGVALENNRDLRVAALNVEAFRAQYRIQRADLFPRIGVDGSGTRQRLPGDLSTTGSPAISSQYGVTLGTTAWELDLFGRLRSLRDQALEQYLATEQAQRSAQTTLVASVATAYLTLKADQAQLQLTKDTLGTYQKSFDLTQRSYDVGVASALDLRQAQTAVEGARATLAQYTRLVAQDQNALVLLLGSGIPANLPQGLGLDQTLLTEVPAGLPSDLLQRRPDILEAEHQLMAANASIGAARAAFFPSISLTANAGTMSRQLSGLFDAGSGSWLFQPSINLPIFTAGSLRASLDYAKIQKDINVAQYEKAIQTAFQEVADGLAARGTFTEQLQAQRDLVKASDEYYQLADKRYRTGVDNYLTLLDAQRSLFTAQQQLITDRLNQLTSEVNLYKALGGGWNQQTVTQQQTAKKEDPQA
notes: OprM, outer membrane channel of the MexA-MexB-OprM efflux pump, Pseudomonas aeruginosa; Purified by the protocol of Phan et al., 2010 with minor modifications; also called OMF; OprM proteoliposomes
B1: binds [1]; binds [2].

B2: MexAnp, truncated "cysteine-less" form of MexA without its first 24 residues (non-palmitoylated, soluble) (domain or fragment)
chain: GKSEAPPPAQTPEVGIVTLEAQTVTLNTELPGRTNAFRIAEVRPQVNGIILKRLFKEGSDVKAGQQLYQIDPATYEADYQSAQANLASTQEQAQRYKLLVADQAVSKQQYADANAAYLQSKAAVEQARINLRYTKVLSPISGRIGRSAVTEGALVTNGQANAMATVQQLDPIYVDVTQPSTALLRLRRELASGQLERAGDNAAKVSLKLEDGSQYPLEGRLEFSEVSVDEGTGSVTIRAVFPNPNNELLPGMFVHAQLQEGVKQKAILAPQQGVTRDLKGQATALVVNAQNKVELRVIKADRVIGDKWLVTEGLNAGDKIITEGLQFVQPGVEVKTVPAKNVASAQKADAAPAKTDSKG
notes: MexA, Pseudomonas aeruginosa, without its first 24 residues; non-palmitoylated, soluble; no point mutation is printed; also called soluble version of MexA; soluble MexA; source: generated in the laboratory, produced and purified
B2: binds (MexB).
